Measured values reported in the supplement of paper PMC9170038.

Tested on: MS2 coat protein
Experiment: apparent KD of MS2 coat protein; higher = weaker reporter binding
Conditions: Eterna round: R107
How it was run: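 The designed RNA switches were transcribed on-chip from Illumina sequencing clusters. In 100 mM Tris-HCl pH 7.5, 80 mM KCl and 4 mM MgCl2, without or with constant ligand, they were titrated with SNAP-549-labelled MS2 coat protein from 0.7 or 1.5 nM to 3 µM in twofold steps. Apparent KD is the per-design median of normalised cluster binding-curve fits.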

[1] = input ligand: theophylline 20 uM
[2] = input ligand: theophylline 2 mM
[3] = input ligand: tryptophan 2.4 mM

Sequence	apparent KD of MS2 coat protein (input ligand: arginine 13.2 mM) [µM]	apparent KD of MS2 coat protein (input ligand: none) [µM]	apparent KD of MS2 coat protein [1] [µM]	apparent KD of MS2 coat protein [2] [µM]	apparent KD of MS2 coat protein [3] [µM]
AGUCUUAAAGGAAGGAGCGCAGUCAUAACAUGAGGAUCACCCAUGUCGAGGUGAGGGUCAUUGCAGGUAGGUCGCCUUACUAAGA [Same State - Arginine B (Freestyle 6)]	0.0777	0.114	0.118	0.133	0.0961
AGUCUUAAUGGAAGGAGCGCAGUCAUAACAUGAGGAUCACCCAUGUCGAGGUGAGGGUCAUUGCAGGUAGGUCGCCAUACUAGAA [Same State - Arginine B (Freestyle 1)]	0.131	0.153	0.222	0.186	0.125
AGUGAUGACCGAAGGAGCGCGGGAAACAUGAGGAUCACCCAUGUACUCCUCAGUGUUAUAACGCAGGUAGGUCGCGGUUAUGGCU [X-ArgiB-ms2@26]	0.148	0.18	0.296	0.328	0.279
AGUUAAAUAUGUUAAUAACUAUUUACUGAAGGAGCGUGUUUUUACACAGGUAGGUCGCAGUGACAUGAGGAUCACCCAUGUAGUA [JR_SSArginiA_Sub012]	0.0313	0.0375	0.0497	0.0435	0.0334
AUACAUGAGGAUCACCCAUGUCAUUCAGAAGGAGCGUCAUUAUUGACAGGUAGGUCGCUGAUAAAAUUUUUAUACAUUAUGUUUA [JR_SSArginiA_Sub014]	0.0319	0.0163	0.0209	0.0181	0.0173
AUACAUGAGGAUCACCCAUGUCAUUCAGAAGGAGCGUCAUUUUAGACAGGUAGGUCGCUGUUAUUUUUAUUAUUCUUUAUGUUUU [JR_Nu_ExcArginiA_Sub025]	0.0194	0.0201	0.0272	0.0213	0.0205
AUAGUCUAGAGUGAUACCAGACAACAUGAGGAUCACCCAUGUAGCAUAUGGUUAUCAUGAGUCCCUUGGCAGCACGCAUGUAUAG [JR_ExcTheophyB_Sub012]	0.0134		0.0199		0.0132
AUAUGAAAGAGUGAUACCAGACUACAUGAGGAUCACCCAUGUGACAUUUAAAUAUCAUUUGUCCCUUGGCAGCACAUUAAGUACA [JR_Nu_ExcTheophyB_Sub021]	0.0357		0.0469		0.043
AUAUGAUCAUAUGAUACCAGAAAUGGUAUUCCUUUGUUUCUUACAUGAGGAUCACCCAUGUUCCCUUGGCAGCAUAUGAUCAUAU [ETHB #2]	0.159		0.221		0.238
AUAUGAUCAUGUGAUACCAGAAAUGGUAGUCCUCGCUGGAUUACAUGAGGAUCACCCAUGUUCCCUUGGCAGCAUAUGAUCAUAU [#02 Exclusion-TheophyllineB]	0.0505		0.122		0.0609
AUAUUACAUGUUAUUAUACGGUAUACUGAUACCAGUGUUUCUAUUCACCCUUGGCAGCAGCAACAUGAGGAUCACCCAUGUAUUA [JR_SSTheophyA_Sub018]	0.0156		0.019		0.018
AUCUCGUUCAAUAUACCGCCUUGACUAGAUACCAGCAUGGACCCAUGCCCUUGGCAGCUGGACAUGAGGAUCACCCAUGUUUCAG [SSTheo A #27]	0.0107		0.0148		0.0108
AUGCAGAGCACGGCCGCCACUCCAUGUAUACAUGAGGAUCACCCAUGUAAUUUGUAUUUUUUAUAGAGGACCGGGUGAAAUGCAA [JR_SSTryptoB_Sub011]	0.0414		0.0341	0.0362	
AUGGCGUUGGUGGAGCGGUGAAAUGGCGAUACCAGCGUGGAAACACGCCCUUGGCAGCGCCAAAACAUGAGGAUCACCCAUGUUA [Usti]	0.0189	0.0203	0.046	0.0598	0.0181
AUGUCAUUGGUGCAGCUGUUAAAUGGCGAUACCAGCGUGGAAACACGCCCUUGGCAGCGCCAAAACAUGAGGAUCACCCAUGUUA [Zlin]	0.023		0.0546		0.0271
AUGUCGUUGAAUACAGCGGCAUGGAGUGAUACCAGAAUGAUCAAAUUCCCUUGGCAGCAUGACAUGAGGAUCACCCAUGUUCGAU [SSTheo A #15]	0.0343		0.0613		0.0775
AUGUUGGUCUGAAGGAGCGCGAUAACAUGAGGAUCACCCAUGUUAAAUGGUACAUGAUACUCGCAGGUAGGUCGCAGUACGACAA [Same State Arginine B GF 13]	0.0186	0.0207	0.0297	0.0322	0.0251
AUUAAUAGUUGUGAUACCAGACGAACAUGAGGAUCACCCAUGUAACUUAAGAGUGUUGAUGUCCCUUGGCAGCACUGUUUAGUUA [JR_SSTheophyB_Sub015]	0.0595		0.105		0.0915
AUUAAUAGUUGUGAUACCAGACGAACAUGAGGAUCACCCAUGUAACUUUUAGGUGUUGUAGUCCCUUGGCAGCACUAUGUAGUUA [JR_SSTheophyB_Sub013]	0.0311		0.0445		0.0326

Sequence	apparent KD of MS2 coat protein (input ligand: arginine 13.2 mM) [µM]	apparent KD of MS2 coat protein (input ligand: none) [µM]	apparent KD of MS2 coat protein [1] [µM]	apparent KD of MS2 coat protein [2] [µM]	apparent KD of MS2 coat protein [3] [µM]
AUUAUCAUGGUCAUAUAUAUAUCGUCAGAUACCAGACUAGAUAUAGUCCCUUGGCAGCUGUUACAUGAGGAUCACCCAUGUUAUA [JR_ExcTheophyA_Sub015]	0.0435		0.0801		0.0887
CAACAAGUAACUGAUACCAGUGUACUGACAUGAGGAUCACCCAUGUUGGGUUUUGUUGUACACCCUUGGCAGCAGAAUCUUGUUG [AstrosExyTheB#21]	0.0447		0.0677		0.05
CACAUGAGGAUCACCCAUGUCUGAACUGAAGGAGCGCUAAACAAGGCAGGUAGGUCGCGGAAUCCUGUGUGCAUAUGCACACGGG [9.W]	0.0306	0.018	0.027	0.0261	0.0215
CACAUGAGGAUCACCCAUGUCUGAACUGAAGGAGCGCUAAAUAAGGCAGGUAGGUCGCGGAAUCCUGUGUGCAUAUGCACACGGG [9.X]	0.0207	0.0226	0.0305	0.0289	0.0198
CACUAUGAGGUCGAUACCAGUACUGAGUUGUACAUGAGGAUCACCCAUGUAAAUGUUCGCUACCCUUGGCAGCGAUAACAUUGCA [theeternabot_sameState_MS2_Theo_B_34]	0.0738		0.331		0.246
CAUACUUUAGUAUGACGUGUGGGCAGUGAUACCAGAUACGAAAGUAUCCCUUGGCAGCACAACAUGAGGAUCACCCAUGUAAUUA [Theophylline A 1]	0.0219		0.0266		0.0231
CAUUGUUAGACGGCCGCCACUUUUGGUUCGGAACGAUCGAUUGGACAUGAGGAUCACCCAUGUGGAAGGACCGGGUCUAAUCAAA [theeternabot_sameState_MS2_Trp_B_20]	0.083	0.165	0.328	0.265	0.134
CCAUACGUAACUGAUACCAGUGUACUGACAUGAGGAUCACCCAUGUUGGGUUUUGUUGUACACCCUUGGCAGCAGAAUCGUAUGG [AstrosExyTheB#19]	0.0565		0.0651		0.0658
CCCGACGAGCCUGAGAUUAAGUAAGCGGAUACCAGAGAUAGGUAGCUCCCUUGGCAGCCGUGGACAUGAGGAUCACCCAUGUCAC [theeternabot_exclusion_MS2_Theo_A_22]	0.0114		0.0135		0.0109
CCGCCCUACCGCGAUACCAGUACGGCAGUUAACAUGAGGAUCACCCAUGUGCAAACAUAAUACCCUUGGCAGCGCCUGAAUCCAU [theeternabot_sameState_MS2_Theo_B_12]	0.0157		0.0292		0.0156
CGAACAUGAGGAUCACCCAUGUUAACCGAAGGAGCGGCGCAUAAGUCAGGUAGGUCGCGGUAGAUGAAAUAGAGCAGUGGUGACA [#01 Same State - Arginine A]	0.0244	0.0317	0.045	0.032	0.027
CGAUGAUCGAGGGAUACCAGAAAUGGUAUUCCUUUAUUUCUUACAUGAGGAUCACCCAUGUUCCCUUGGCAGCUUUUGAUCAUCG [ETHB #7]	0.0605		0.0861		0.0746
CGCAACCAACAUGAGGAUCACCCAUGUGAAGGAGCGCCGAAUAAGGCAGGUAGGUCGCACAUGAAUAAAUCAUGAAGGAAGCGAA [XArg-A 12 NuPack]	0.0205	0.0368	0.0438	0.0512	0.0315
CGCCGCGCGGGAAGGAGCGCGAUUACAUAACAUGAGGAUCACCCAUGUAAGAAAUUAUUCAUGCAGGUAGGUCGCCCGCGCGGCG [Same State Arginine B GF 5]	0.0588	0.0223	0.0284	0.0228	0.0228
CGGUCGGUCGGCCGGUGAUUAUGGGAUGAAGGAGCGUGGGAAGCUACAGGUAGGUCGCAUCCGAACCAUGAGGAUCACCCAUGGU [SSArg A #23Alt-Ms2 Mod]	0.0232	0.0251	0.0268	0.0392	0.0217
CGGUUUGUGAUGGAUACCAGCAGAGAGAAUGUUUAUCCUGACAUGAGGAUCACCCAUGUGUGCCCUUGGCAGCUGUUGUGGGCUG [8.Y]	0.0424		0.102		0.0558
CGUAGGAUCGUGGAUACCAGUACCGCCCACGACAUGAGGAUCACCCAUGUAGGUAAUCUUUACCCUUGGCAGCCAUUUUUUUCUG [theeternabot_sameState_MS2_Theo_B_14]	0.041		0.0726		0.0452
CGUAUUGGAAACAGUACGAGUGAUCCGGUCCGAGGACCGGUACGGCCGCCACUCGAAAAUAAAUAACAUGAGGAUCACCCAUGUA [Ex Tryptophan A 8]	0.0195		0.0216	0.0198	
